Assay: soluble fraction after stress (log2 fold change); higher = more stays soluble; pooled small domains, quantitative proteomics
Details: stress: pH 4
How it was run: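 Pooled custom libraries of small protein domains were subjected to pH 4 and measured by high-throughput quantitative proteomics. The log2 fold change in soluble amount per domain is reported, higher values meaning more remained soluble. This is used as a measure of aggregation propensity.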

| Sequence | soluble fraction (log2) |
| --- | --- |
| HMSNEYLMPNLIGMSWDEAKSKYSQYMTLVPEQEWSEVTKDQIFDQEYPEGRKVKIGTEVTVKVSMGI | 0.228 |
| HMSNFGALLRMRRLEAGLSYRGLAEQSGLARATLVNLEQGLTKPSPLTMRRLASVKALRLTEL | 0.00389 |
| HMSNFGERLRALRQDRQMTLQQASKVTGVAQSTLSKMENNQLSPTFNLMQKLAIGLGIDMPQLFAPVK | -0.18 |
| HMSNGEWQQGSDGRWWYKFSDGTYPKNKVETIGGKKYGFDSEGWMLANTTKEFSGTTYSFGADGVATS | -0.0709 |
| HMSNHYETLGVEQTASVDEIKKAYRRLSLQYHPDRNTTSDAVGKFQKINDAHEILSDKQSRTEYDMQLK | 0.0857 |
| HMSNIQLAANLQRLRKDHHFTQTQFSKKLNISRQAYSNYETGKRIPDLDIIIRIANIYHISLENLL | -0.203 |
| HMSNKYYETILDWFKSQIMSGELKEGDTIPSERELATRFGVSRVPVREALRILEYIGIVSNTADGMTVQKV | -0.976 |
| HMSNLKKRRLEKNLTLDDVGKLVGVSAATISRWESGDIENMRSDKIVKLANALEISPAVILGW | -0.641 |
| HMSNLLKNILDVLEKEGPLKARKIALLLDSTRTTITHTTINSELYKALDLEGLTKNEQNIWSYVT | -0.389 |
| HMSNLVEVPAVIGRMKEDAITMLISAGLEPAVTYDEYPLVKENLVADQSVAPGQKVEKGSFVTITVSRS | 0.22 |
| HMSNMESLIGREATVIEMIPAEDVGRVKIDGDEWQAVLAREDDNEPRRDIQVGEKVIIVSYDSIILTVKTK | -1.02 |
| HMSNNENSILEKLNSFSGKKIKVSHTIGSLAARLDEYPKIKMWLYKRIRENSINEQAYKYLIFIIERKVR | -0.0495 |
| HMSNPADDVVDLLRQLRLPHMRAAAPELLATAKAQRWDPAEAIRALLTEELAGRQASSINARRK | -0.226 |
| HMSNPPIRIGKKALHELLTTWLSLLSRDGVAYLVVQKNLGADSLTAWLRDQGFPSEKIASKKGFRIIEVH | 0.0506 |
| HMSNRDNPVVLDFKKVKSTEQLDNILEEYIRENFEGYTVKGRMFSSDEGKFIIALALKDDDGKRALVYFDV | -1.06 |
| HMSNRIDKIKLNHWLNIRKTSLDVLNNLLSKHLNHKINFENLENLDEQAIEKISEVLSIPKNKLLINDDVP | -0.226 |
| HMSNTVEDLIDDIGTVTKDSKDKIDAARKAYDGLTEDQKKLVPDSVLKTLTDAEAAYAKLTK | 0.191 |
| HMSNWYGTVVKIQPRPNAQAADTAVVKLLDGSEHRFPVWADHLTTIEVGSRLKKLSGGWDPVLMDPEETF | -0.573 |
| HMSNWYKNNETDQIWWKDTPDSVGEWLFSFDKKQVFNMFADYPHNLTPEQKKIFDEENPEWSDRP | -0.981 |
| HMSNYPYLLRTYEGKLAVFTDDLVQPDLVFDVYVRTLPELDQQQLSRGIRVKTYDELTSMIEDYI | -0.956 |
| HMSPAVEDYLEQIHNLIAQKGYARVVDIAGNLKISQASVTNMIQRMDADGLVVYERYRGVVLTETGRK | -0.456 |
| HMSPDLNEVEEKVFRALNGVESMHVNKLGIELNLPVSELFFTLLELEMKNVVKALPGGMYKL | -1.1 |
| HMSPFYILDEVEAALDDTNLGRLLEIYEELRENSQLLVITHQKRTMEVGDALYGVTMRGDGVSAVISQRLR | -1.74 |
| HMSPKYLELVRWINTQIQEKKLTAGQKMYSENELKEMFGVSRQTVRHAISVLEGEGMIRRVRGSGTYINDN | -0.043 |
| HMSPLALLTPRELDILRAMTAGASNKEIARQFAIAETTVKIHVQHILRKLDVTTRVHAAVMASESGL | -1.09 |

| Sequence | soluble fraction (log2) |
| --- | --- |
| HMSPPALAVQRDGSNVQISWPGAEEGWRLESSAEPSGAAWDLIAQNPTPVGGRWTVSLTEPTGRRFYRLVK | 0.039 |
| HMSPSLVEAMRLRMYEMGLNQAKLSELLGVSPSRVSDYLTGRSEPTLKVARDISRKLNIDASIVLG | -0.0682 |
| HMSPSQFRSKSLLVEINFASRQMDGEILQGDYAGKRLSELTEAEVQELTAWLKQSDRESFVLLQAYLLRSG | -1.17 |
| HMSPSSPNQILGQYPKTKNDIILSSGRYGPYLKYNKKNYSLGNNISVEKLSLEEAVKIIDLKDKK | 0.0926 |
| HMSPTDKATVNVYALNVRTGPGTNYKVLGSVIKGTELQVLGSSGKWLKVKYGNREAYVAGWLVK | 0.118 |
| HMSPTEQEKIGLFIKKLREEKNLTQEAFASLLKTSQSAVARIESGNQNITIEQLMKIGEVLNHNIVSI | -0.215 |
| HMSQDPLETYYPQWSAAVKQSNPDAEIIRDTDGKYYVEGMTKNRVAVIYENPHLVRLVNATTNVHVE | 0.238 |
| HMSQDTLIGRVGVIVIGQARTGSPAQVRVKDGFGQTHYVMAEPDSEGVLKQGEAVLLVSLEGNTFKAILNP | ≥ 0.43 |
| HMSQDVLLKRSGDQIEVKITEVGEDYLKYKKKGFENGPDFKINTSDVFMVTFANGEKMMFEES | -2.15 |
| HMSQEAKLAMPVTDLRLSARTLNALELANIRTVRDLVSHTEEQLLELRNFGETALAEVKEKLAALGLRLGM | -0.436 |
| HMSQESIMPNLVGSTEDEAKAIAVEYGFQLNVISRVNNSQYPAGVIIDQNVDEGVRIKAGYPVGVTIS | -0.0416 |
| HMSQIAENNQKYVGTIQKVLVEGTSKNNDDMLTGRTDSNKVVIFEGDKKLIGNMVELKIVSEHMWYLKGEL | -0.0811 |
| HMSQISKLWRPSEDVTEILTRSGMDSEFLEGLIPEFIIYWSERADVLVSYNSKFIEHARLKWAQHSAEIKT | -1.94 |
| HMSQLLHELLAHVLKDRIISGEWPAGSRIMSEHALQERYGVSRGTVRRALAQLVQEGLLVQRKGKGTFVTR | 0.35 |
| HMSQLVTGVLRNLNDISEKIAAGKAVPEMLGRLENMQQMIANLKGNEGLIKSISILTRSAQDALR | -0.0398 |
| HMSQPLYWQIRRMVIDHDDANDVLQNTFIKAWSNIGSFRGDAKFSTWLYKIAVNESITFINKKKVQN | -0.0472 |
| HMSQPYFELAAADMEALRNALSTIREIESVVLSGKIFHVEVREDLDPGTMNKLAFERGITLTHLVKKKN | -1.06 |
| HMSQRINLNSASIEDMQSLDISNEKIDSIIDYRNRYGNIHNIYELLKIPGITIGDIHSIRNAVTVEIPH | -0.472 |
| HMSQSLSGWAAKDLEVKSGADASYRTVGRLPKGSKVSGKIINGYLHIEFDGSMRYVPVSGISKTE | 0.156 |
| HMSQSYHLADRGQSLGTLDYQAVLVGLATGRLSPDTLSWQEGEAGWVALRQRPEFASGVSAVASL | -0.753 |
| HMSRAHTELEEKLLTMLEENDMTLPMRVISNIASRIEGIIIPEEKILEVLKKSYDRYREHQMD | -0.784 |
| HMSRARSRQTSMLEAVAGLGPARRRALLKQFGGLQGVLRAGIEDLSRAPGIGPALAQAIFEHLHPGA | -0.0797 |
| HMSREQARRFYFDTWAKHRASQPLTDLEKIALTVMLLHPEYHSLLDKPDHYVDKDYSPEAGQTNPFLHM | -0.474 |
| HMSRIDRKGLTSQIVNHLSKNPGKNFTLKQFFRNLKLNTHPLKMLAVDVLNKLLDTNFITRNEDGEFFLKA | -0.123 |
| HMSRLMIVTPDGRIMDDVPEFGEVRTTTDVNGRVLVLDRNNVVIGFEMTPREYRREFGRNPF | 0.0337 |

| Sequence | soluble fraction (log2) |
| --- | --- |
| HMSRQAPIGHRIRGRRKDIGMTQNALAKAAGISPSYLNLIEHNRRSIGGGLLMRIAAILDIHPHTL | 0.0837 |
| HMSRTLLVYVTGAVRQPGVYELPEGSRFFDAVKAAGDVLPYAVMEDINMAEPLSDGMKIHIPLDPEQ | -1.01 |
| HMSRVFSPSELEIRHAQDVFQALEEAKRQGKGAVSLNGKMIDAPIVARAKLVLEAAAAIYGED | -0.202 |
| HMSRVHHGFNISIARNRKGLKQAALADMLGISQQRLSQLENQRVVKDEILEKVSEATGVSVEDLKTIE | 0.171 |
| HMSRVSVDGEEVNFEGEIPDDPSRIYELLMGALSEQSRVVVKFFVDGKDALLDEGFPSRYQMIEAESV | -0.733 |
| HMSRYAFEGNVVRLNQKDFDSWKALFTNIDLVSELTRLDIEFTHDKPKNWFSTASAKLNYQNKNAY | -0.903 |
| HMSRYLLPYAFARTQQVLLEEKSGELTLWMHSGSNLGGISEVTRKYAVQHVTHEPMDALLNRISSAYAN | -2.03 |
| HMSSAVKRALAELPENWRMIVYYRVVEGLSYAEIAKVLDIPDGSVMSGLHRGKKMLRGLLLEYAQQEGYD | -0.74 |
| HMSSDDEAFKRELVGLIPHLRAFARTLTGDPTAADDLAQDAMMKAWDARASYQMGTNMKAWTFMILRNQFY | -1.65 |
| HMSSDKVWSFEASGKQLQASYVAFENETVYLRASEDGSLLQFPLTDFGMKDQLVVLELYELSAKINRSN | -0.779 |
| HMSSDLSNVVKIIDTLKHKKGALLPILHQIQREIGYIPLKTIDTIAKKLQQTPAEIHGVISFYHQFRTS | 0.22 |
| HMSSEASALRGWLQTSQYQGSVTLFANALNVPLKTVEDWVYGRSKPSLQHWSQLYEATGLPEYQQ | 0.0888 |
| HMSSFRDISGTVYVKASAANLRSEPNTSSLIVDTLYYGASLQRISTNDIWTKVKTGNGQIGFMDNSLFQT | ≥ 0.43 |
| HMSSGSLLTEREIEILAEMAKGLTNKAIGEKLFISVATVKTHILNIYRKLEVSSRVTAVNKAKQMRL | -0.11 |
| HMSSGTAYATDAVNVRSGPGTSYTVLGYLSRGEKVTITGTVSNGWTQIQLPGNRLGYVSSAYLSASYPS | -0.115 |
| HMSSHNIALDQDVVVTQLKGKVYLVAADGSQKQLAEGDILPKDAVLITPEGASFKGGNQTFTLS | -0.235 |
| HMSSIFTRIIAGEIPSYKVAEDENYYAFLDINPLTKGHTLVVPKMEVDYIFDLDDKTLAGMMLFAKKG | -0.455 |
| HMSSKIKYSEFITMLDKGEVESVVLKSDTLTITLKHGTGVAAQTKTTTLMEDLSELTKRLEKAGIKDFDK | 0.22 |
| HMSSLDTLTARETQILAEMAQGKNNAAIAAAVSVSERAVEKHTNSIFAKLGLSEEKDVNRRVMAVLLFLGR | -1.5 |
| HMSSLEQVYPNPVSSILKLNSFIKNYKILNATGHEVLKGSGNTINVGKLPSGSYFLITSENYSIKFIK | 0.119 |
| HMSSLSGVRRTLLDSLGMPPDASDEELADRREELRGSLDTAPQARRKWIEQQLARIDAITALDASG | -0.0243 |
| HMSSPEAAEVQRLLKDGQHVQALKIIDESLARNPKDPQMRFRRGVALSMLDRKNEALAVFQKLVED | -0.0849 |
| HMSSPRAIYSAIQKAVGEDMILYREDVQIILDKLDADLLVDDILEKMELDGTLVRQRDGTWLLL | -1.01 |
| HMSSQVFLGQKNSIAKYDLNENKPIWTKEIKGTPLILSTWKDMLLIQIQTWVSYTHMLVKQENGQTVWE | 0.282 |
| HMSSRLEIEITSKIDDLSHTWRAVGAKQPKGNIKSSLLPSGVKVGETFRVEADFLLDGIEIVSVLPP | -1.52 |
